# In patent US20220048967A1 (published 2022):
# Where a chain is given by its changes, count along the chain named. Numbered stars: 1 amine (or outer) side, 2 acyl side, 3 side chain; on linkers, the order of the positions; unused ones are H or OH. Square brackets hold non-standard residues; d marks the D form. Side chains are listed from the residue outwards. Ends that are not written are not given here. * marks the point of attachment. C20 diacid = O=C(O)CCCCCCCCCCCCCCCCCCC(=O)*; C18 diacid = O=C(O)CCCCCCCCCCCCCCCCC(=O)*; γGlu = O=C(O)[C@H](CCC(=O)[*:2])N[*:1]; AEEA = NCCOCCOCC(=O)O; Aib = CC(C)(N)C(=O)O
# B1: Example 4 (peptide)
# peptide: YXEGTXTSDXSIXLDXKAQXEFIXXLIEGGPSSGAPPPS
# modifications: Aib2, αMeF(2F)6, 4Pal10, αMeL13, Orn16, K17 conjugated to (2-[2-(2-Amino-ethoxy)-ethoxy]-acetyl)2-(γ-Glu)-CO-(CH2)16-CO2H, Aib20, D-Glu24, αMeY25, C-terminal amide (NH2)
# B2: Example 300 (peptide)
# peptide: YXEGTFTSDYSIXLDKKAQXAFIEYLIEGGPSSG
# modifications: Aib2, αMeL13, K17 conjugated to (2-[2-(2-Amino-ethoxy)-ethoxy]-acetyl)2-(γ-Glu)-CO-(CH2)16-CO2H, Aib20, C-terminal amide (NH2)
# B3: Example 301 (peptide)
# peptide: B2 peptide with F6X, X13L
# modifications: Aib2, αMeF6, K17 conjugated to (2-[2-(2-Amino-ethoxy)-ethoxy]-acetyl)2-(γ-Glu)-CO-(CH2)16-CO2H, Aib20, C-terminal amide (NH2)
# B4: Example 302 (peptide)
# peptide: B2 peptide with F6X, X13L
# modifications: Aib2, αMeF(2F)6, K17 conjugated to (2-[2-(2-Amino-ethoxy)-ethoxy]-acetyl)2-(γ-Glu)-CO-(CH2)16-CO2H, Aib20, C-terminal amide (NH2)
# B5: Example 303 (peptide)
# peptide: B2 peptide with K16E
# modifications: Aib2, αMeL13, K17 conjugated to (2-[2-(2-Amino-ethoxy)-ethoxy]-acetyl)2-(γ-Glu)-CO-(CH2)16-CO2H, Aib20, C-terminal amide (NH2)
# B6: Example 266 (peptide)
# peptide: Y[Aib]EGTFTSDYSILLDKK([AEEA-AEEA-γGlu-C18 diacid])AQ[Aib]AFIEYLIEGGPSSG-NH2
# modifications: N-terminus assumed
# SMILES: CC[C@H](C)[C@H](NC(=O)[C@H](CC(C)C)NC(=O)[C@H](Cc1ccc(O)cc1)NC(=O)[C@H](CCC(=O)O)NC(=O)[C@@H](NC(=O)[C@H](Cc1ccccc1)NC(=O)[C@H](C)NC(=O)C(C)(C)NC(=O)[C@H](CCC(N)=O)NC(=O)[C@H](C)NC(=O)[C@H](CCCCNC(=O)COCCOCCNC(=O)COCCOCCNC(=O)CC[C@H](NC(=O)CCCCCCCCCCCCCCCCC(=O)O)C(=O)O)NC(=O)[C@H](CCCCN)NC(=O)[C@H](CC(=O)O)NC(=O)[C@H](CC(C)C)NC(=O)[C@H](CC(C)C)NC(=O)[C@@H](NC(=O)[C@H](CO)NC(=O)[C@H](Cc1ccc(O)cc1)NC(=O)[C@H](CC(=O)O)NC(=O)[C@H](CO)NC(=O)[C@@H](NC(=O)[C@H](Cc1ccccc1)NC(=O)[C@@H](NC(=O)CNC(=O)[C@H](CCC(=O)O)NC(=O)C(C)(C)NC(=O)[C@@H](N)Cc1ccc(O)cc1)[C@@H](C)O)[C@@H](C)O)[C@@H](C)CC)[C@@H](C)CC)C(=O)N[C@@H](CCC(=O)O)C(=O)NCC(=O)NCC(=O)N1CCC[C@H]1C(=O)N[C@@H](CO)C(=O)N[C@@H](CO)C(=O)NCC(N)=O
# B7: Example 288 (peptide)
# peptide: Y[Aib]EGTFTSDYSILLDKK([AEEA-AEEA-γGlu-C20 diacid])AQ[Aib]AFIEYLIAGGPSSGAPPPS-NH2
# modifications: N-terminus assumed
# SMILES: CC[C@H](C)[C@H](NC(=O)[C@H](CC(C)C)NC(=O)[C@H](Cc1ccc(O)cc1)NC(=O)[C@H](CCC(=O)O)NC(=O)[C@@H](NC(=O)[C@H](Cc1ccccc1)NC(=O)[C@H](C)NC(=O)C(C)(C)NC(=O)[C@H](CCC(N)=O)NC(=O)[C@H](C)NC(=O)[C@H](CCCCNC(=O)COCCOCCNC(=O)COCCOCCNC(=O)CC[C@H](NC(=O)CCCCCCCCCCCCCCCCCCC(=O)O)C(=O)O)NC(=O)[C@H](CCCCN)NC(=O)[C@H](CC(=O)O)NC(=O)[C@H](CC(C)C)NC(=O)[C@H](CC(C)C)NC(=O)[C@@H](NC(=O)[C@H](CO)NC(=O)[C@H](Cc1ccc(O)cc1)NC(=O)[C@H](CC(=O)O)NC(=O)[C@H](CO)NC(=O)[C@@H](NC(=O)[C@H](Cc1ccccc1)NC(=O)[C@@H](NC(=O)CNC(=O)[C@H](CCC(=O)O)NC(=O)C(C)(C)NC(=O)[C@@H](N)Cc1ccc(O)cc1)[C@@H](C)O)[C@@H](C)O)[C@@H](C)CC)[C@@H](C)CC)C(=O)N[C@@H](C)C(=O)NCC(=O)NCC(=O)N1CCC[C@H]1C(=O)N[C@@H](CO)C(=O)N[C@@H](CO)C(=O)NCC(=O)N[C@@H](C)C(=O)N1CCC[C@H]1C(=O)N1CCC[C@H]1C(=O)N1CCC[C@H]1C(=O)N[C@@H](CO)C(N)=O
# B8: Example 272 (peptide)
# peptide: Y[Aib]EGTFTSDYSILLDKK([AEEA-AEEA-γGlu-C18 diacid])AQ[Aib]AFIEYLIAGGPSSG-NH2
# modifications: N-terminus assumed
# SMILES: CC[C@H](C)[C@H](NC(=O)[C@H](CC(C)C)NC(=O)[C@H](Cc1ccc(O)cc1)NC(=O)[C@H](CCC(=O)O)NC(=O)[C@@H](NC(=O)[C@H](Cc1ccccc1)NC(=O)[C@H](C)NC(=O)C(C)(C)NC(=O)[C@H](CCC(N)=O)NC(=O)[C@H](C)NC(=O)[C@H](CCCCNC(=O)COCCOCCNC(=O)COCCOCCNC(=O)CC[C@H](NC(=O)CCCCCCCCCCCCCCCCC(=O)O)C(=O)O)NC(=O)[C@H](CCCCN)NC(=O)[C@H](CC(=O)O)NC(=O)[C@H](CC(C)C)NC(=O)[C@H](CC(C)C)NC(=O)[C@@H](NC(=O)[C@H](CO)NC(=O)[C@H](Cc1ccc(O)cc1)NC(=O)[C@H](CC(=O)O)NC(=O)[C@H](CO)NC(=O)[C@@H](NC(=O)[C@H](Cc1ccccc1)NC(=O)[C@@H](NC(=O)CNC(=O)[C@H](CCC(=O)O)NC(=O)C(C)(C)NC(=O)[C@@H](N)Cc1ccc(O)cc1)[C@@H](C)O)[C@@H](C)O)[C@@H](C)CC)[C@@H](C)CC)C(=O)N[C@@H](C)C(=O)NCC(=O)NCC(=O)N1CCC[C@H]1C(=O)N[C@@H](CO)C(=O)N[C@@H](CO)C(=O)NCC(N)=O
# B9: Example 315 (peptide)
# peptide: YXEGTFTSDYSILLDKKAQXAFIEYLIEGGPSSGAPPPS
# modifications: Aib2, K17 conjugated to (2-[2-(2-Amino-ethoxy)-ethoxy]-acetyl)2-(γ-Glu)-CO-(CH2)16-CO2H, Aib20, C-terminal amide (NH2)
# B10: Example 327 (peptide)
# peptide: B9 peptide with Y1F, L13X
# modifications: Aib2, αMeL13, K17 conjugated to (2-[2-(2-Amino-ethoxy)-ethoxy]-acetyl)2-(γ-Glu)-CO-(CH2)18-CO2H, Aib20, C-terminal amide (NH2)
# B11: Example 289 (peptide)
# peptide: B9 peptide with L13X, A21E, E28A
# modifications: Aib2, αMeL13, K17 conjugated to (2-[2-(2-Amino-ethoxy)-ethoxy]-acetyl)2-(γ-Glu)-CO-(CH2)18-CO2H, Aib20, C-terminal amide (NH2)
# B12: Example 267 (peptide)
# peptide: Y[Aib]EGTFTSDYSILLDKK([AEEA-AEEA-γGlu-C18 diacid])AQ[Aib]AFIEYLIEGG-NH2
# modifications: N-terminus assumed
# SMILES: CC[C@H](C)[C@H](NC(=O)[C@H](CC(C)C)NC(=O)[C@H](Cc1ccc(O)cc1)NC(=O)[C@H](CCC(=O)O)NC(=O)[C@@H](NC(=O)[C@H](Cc1ccccc1)NC(=O)[C@H](C)NC(=O)C(C)(C)NC(=O)[C@H](CCC(N)=O)NC(=O)[C@H](C)NC(=O)[C@H](CCCCNC(=O)COCCOCCNC(=O)COCCOCCNC(=O)CC[C@H](NC(=O)CCCCCCCCCCCCCCCCC(=O)O)C(=O)O)NC(=O)[C@H](CCCCN)NC(=O)[C@H](CC(=O)O)NC(=O)[C@H](CC(C)C)NC(=O)[C@H](CC(C)C)NC(=O)[C@@H](NC(=O)[C@H](CO)NC(=O)[C@H](Cc1ccc(O)cc1)NC(=O)[C@H](CC(=O)O)NC(=O)[C@H](CO)NC(=O)[C@@H](NC(=O)[C@H](Cc1ccccc1)NC(=O)[C@@H](NC(=O)CNC(=O)[C@H](CCC(=O)O)NC(=O)C(C)(C)NC(=O)[C@@H](N)Cc1ccc(O)cc1)[C@@H](C)O)[C@@H](C)O)[C@@H](C)CC)[C@@H](C)CC)C(=O)N[C@@H](CCC(=O)O)C(=O)NCC(=O)NCC(N)=O
# B13: Example 316 (peptide)
# peptide: Y[Aib]EGTFTSDYSILLDKK([AEEA-AEEA-γGlu-C18 diacid])AQ[Aib]AFIEYLIAGGPSSGAPPPS-NH2
# modifications: N-terminus assumed
# SMILES: CC[C@H](C)[C@H](NC(=O)[C@H](CC(C)C)NC(=O)[C@H](Cc1ccc(O)cc1)NC(=O)[C@H](CCC(=O)O)NC(=O)[C@@H](NC(=O)[C@H](Cc1ccccc1)NC(=O)[C@H](C)NC(=O)C(C)(C)NC(=O)[C@H](CCC(N)=O)NC(=O)[C@H](C)NC(=O)[C@H](CCCCNC(=O)COCCOCCNC(=O)COCCOCCNC(=O)CC[C@H](NC(=O)CCCCCCCCCCCCCCCCC(=O)O)C(=O)O)NC(=O)[C@H](CCCCN)NC(=O)[C@H](CC(=O)O)NC(=O)[C@H](CC(C)C)NC(=O)[C@H](CC(C)C)NC(=O)[C@@H](NC(=O)[C@H](CO)NC(=O)[C@H](Cc1ccc(O)cc1)NC(=O)[C@H](CC(=O)O)NC(=O)[C@H](CO)NC(=O)[C@@H](NC(=O)[C@H](Cc1ccccc1)NC(=O)[C@@H](NC(=O)CNC(=O)[C@H](CCC(=O)O)NC(=O)C(C)(C)NC(=O)[C@@H](N)Cc1ccc(O)cc1)[C@@H](C)O)[C@@H](C)O)[C@@H](C)CC)[C@@H](C)CC)C(=O)N[C@@H](C)C(=O)NCC(=O)NCC(=O)N1CCC[C@H]1C(=O)N[C@@H](CO)C(=O)N[C@@H](CO)C(=O)NCC(=O)N[C@@H](C)C(=O)N1CCC[C@H]1C(=O)N1CCC[C@H]1C(=O)N1CCC[C@H]1C(=O)N[C@@H](CO)C(N)=O
# Legend:
# [1] = biological target: human GLP-1 receptor (human, UniProt P43220 24-463); assay: cell-based or functional assay
# [2] = biological target: Pro-Link-tagged Human GLP-1R (human, UniProt P43220 24-463); assay: cell-based or functional assay
Binder,hGLP1R GTPgS % Top [1] [%],hGLP1R GTPgS Rel EC50 [1] [nM],hGLP1R B-Arrestin2 % Top [2] [%],hGLP1R B-Arrestin2 Rel EC50 [2] [nM]
B1,86.9,0.245,92.4,4.8
B2,85.6,0.405,38.4,5.4
B3,91.4,0.435,93.7,2.67
B4,98.6,0.268,98.4,2.19
B5,74.3,0.547,47.7,17.9
B6,63.4,0.865,17.1,16
B7,66.7,0.666,21.3,6.74
B8,66.5,0.651,–,> 12000
B9,44.2,0.601,25.4,19.9
B10,75.6,0.287,41.6,3.79
B11,83.7,0.404,51.3,12.4
B12,62.3,0.867,16.5,9.01
B13,56.7,0.766,26.1,6.08
